# “And” between values parts separate entries of the source, which are not always exact repeats. Identical values can stand only once.
# Target: the molecule itself
# Assay: non-reducing SDS-PAGE with Western blot; native protein extracts of fresh or cryopreserved bull sperm, 30 ug protein, Laemmli buffer with 1.275% SDS and without 2-mercaptoethanol, 12% gels; compared with standard reducing SDS-PAGE; oligomer bands stronger after cryopreservation
row,Protein,stoichiometry N
1,"peroxiredoxin 5 (enzyme, Bos taurus (endogenous in bull sperm), UniProt Q9BGI1 58-219, looked up, peroxiredoxin 5 (PRDX5) from Bos taurus, endogenous in bull sperm; runs as a single 17.5 kDa band in standard SDS-PAGE; The oligomers are disulfide-linked, as they appear only in non-reducing SDS-PAGE; also called PRDX5; source: endogenous, bull sperm lysate (native protein extraction; fresh or cryopreserved sperm)) MAPIKVGDAIPSVEVFEKEPGNKVNLAELFKGKKGVLFGLPGAFTPGCSKTHLPGFVEQADALKAKGIQVVACLTVNDVFVTEEWARAHKAEGKVRLLADPSGTFGKETDLLLDDSLLFLFGNHRLKRFSMVIEDGIVKSLNVEPDGTGLTCSLAPNILSQL",6
2,"peroxiredoxin 6 (enzyme, bovine (endogenous in bull sperm), UniProt O77834 1-224, looked up, peroxiredoxin 6 (PRDX6), bovine, endogenous in bull sperm; runs as a single 25 kDa band in standard SDS-PAGE; The oligomers are disulfide-linked, as they appear only in non-reducing SDS-PAGE; also called PRDX6; source: endogenous, bull sperm lysate (native protein extraction; fresh or cryopreserved sperm)) MPGGLLLGDEAPNFEANTTIGRIRFHDYLGDSWGILFSHPRDFTPVCTTELGRAAKLAPEFAKRNVKMIALSIDSVEDHLAWSKDINAYNGEEPTEKLPFPIIDDKNRDLAIQLGMLDPAEKDEKGMPVTARVVFIFGPDKKLKLSILYPATTGRNFDEILRVIISLQLTAEKRVATPVDWKNGDSVMVLPTIPEEEAKKLFPKGVFTKELPSGKKYLRYTPQP",2 and 6
